# Values of other authors, collected in patent US20240247069A1, “FGFR3 BINDING MOLECULES AND METHODS OF USE THEREOF” (Regeneron Pharmaceuticals, Inc., priority 2023, published 2024).
# Read-outs that look alike come from different tables or passages of the source.
# Tested on: FGFR3
# [1] = Table T-3, exemplary FGFR3 D3 binding sequences from cited PCT publications
# [2] = literature antibodies, sequences from cited PCT publications
molecule,measurement,setting,value
"MS-Pro-28: anti-FGFR3 Ig-like domain 3 antibody of WO 2002/102972 A2; VH SEQ ID NO:38, VL SEQ ID NO:39 (antibody, V domains shown) VH: QVQLVQSGAEVKKPGSSVKVSCKASGGTFSSYAISWVRQAPGQGLEWMGGIIPIFGTANYAQKFQGRVTITADESSTAYMELSSLRSEDTAVYYCARGGGWVSHGYYYLFDLWGQGTLVTVSS VL: DIQMTQSPSSLSASVGDRVTITCRASQGISSYLAWYQQKPGKAPKLLIYAASSLQSGVPSRFSGSGSGTDFTLTISSLQPEDFAVYYCFQYGSIPPTFGQGTKVEIKRT",Activity,[1],Antagonistic
same,Activity,[2],Antagonistic
"MS-Pro-2: anti-FGFR3 Ig-like domain 2 antibody of WO 2002/102972 A2; VH SEQ ID NO:24, VL SEQ ID NO:25 (antibody, V domains shown) VH: QVQLVQSGAEVKKPGASVKVSCKASGYTFTSYYMHWVRQAPGQGLEWMGWINPNSGGTNYAQKFQGRVTMTRDTSISTAYMELSSLRSEDTAVYYCARDFLGYEFDYWGQGTLVTVSS VL: DIELTQPPSVSVAPGQTARISCSGDALGDKYASWYQQKPGQAPVLVIYDDSDRPSGIPERFSGSNSGNTATLTISGTQAEDEADYYCQSYDYSADYVFGGGTKLTVLGQ",Activity,[2],Antagonistic
"MS-Pro-26: anti-FGFR3 Ig-like domain 3 antibody of WO 2002/102972 A2; VH SEQ ID NO:36, VL SEQ ID NO:37 (antibody, V domains shown) VH: QVQLVQSGAEVKKPGASVKVSCKASGYTFTSYYMHWVRQAPGQGLEWMGWINPNSGGTNYAQKFQGRVTMTRDTSISTAYMELSSLRSEDTAVYYCARGYWYAYFTYINYGYFDNWGQGTLVTVSS VL: DIALTQPASVSGSPGQSITISCTGTSSDVGGYNYVSWYQQHPGKAPKLMIYDVSNRPSGVSNRFSGSKSGNTASLTISGLQAEDEADYYCQSYDNNSDWFGGGTKLTVLGQ",Activity,[1],Antagonistic
same,Activity,[2],Antagonistic
"MS-Pro-29: anti-FGFR3 Ig-like domain 3 antibody of WO 2002/102972 A2; VH SEQ ID NO:40, VL SEQ ID NO:41 (antibody, V domains shown) VH: QVQLVQSGAEVKKPGASVKVSCKASGYTFTSYYMHWVRQAPGQGLEWMGWINPNSGGTNYAQKFQGRVTMTRDTSISTAYMELSSLRSEDTAVYYCARTWQYSYFYYLDGGYYFDIWGQGTLVTVSS VL: DIVLTQSPATLSLSPGERATLSCRASQSVSSSYLAWYQQKPGQAPRLLIYGASSRATGVPARFSGSGSGTDFTLTISSLEPEDFATYYCQQTNNAPVTFGQGTKVEIKRT",Activity,[1],Antagonistic
same,Activity,[2],Antagonistic
